Test results: patent US20240209029A1, “ADIPONECTIN GLYCOPEPTIDES AND COMPOSITIONS AND METHODS OF USE THEREOF” (The University of Hong Kong, priority 2021, published 2024)

Test system: MDA-MB-231 cells
Test: Cancer cell proliferative assay (anti-proliferative activity, manual cell counting)
Format: cell-based, human
Protocol: FIGS. 3A-3B are bar graphs showing the Emax (FIG. 3A) and EC50 (FIG. 3B) of adiponectin or peptides with no glycans (hAdn-WM), or mono-, di-, tri- and tetra-glycans. The glyACD and adiponectin elicit synergistic anti-proliferative activity in human MDA-MB-231 cells. After serum starvation for 24 hours, MDA-MB-231 cells were treated with different concentrations of hAdn-WM, glyACD, full-length human adiponectin, or their combinations. After incubation for another 24 hours, cells were harvested for manual counting. FIG. 3C is a graph showing the inhibition rate on MDA-MB-231 cells of the indicated peptides. MDA-MB-231 cells were treated with different concentrations of adiponectin in the absence or presence of low (2.5 μg/ml) or high (20 μg/ml) doses of hAdn-WM or hAdn-WM656877101. FIG. 3D is a heatmap showing the percentage inhibition on cell growth. MDA-MB-231 cells were treated with 0, 0.22, 0.33, 0.49, 0.74, 1.11, 1.67, 2.5 μg/ml adiponectin in combination with 0, 0.3125, 0.625, 1.25, 2.5, 5, 10, 20 μg/ml hAdn-WM or hAdn-WM656877101. The percentage inhibition on cell growth was calculated and indicated by different intensity of the blue color. Data are presented as mean±SEM (n=6). *, P<0.05 vs full-length human adiponectin; ♦, P<0.05 vs peptide with no glycans (hAdn-WM); ▴, P<0.05 vs peptide with tetra-glycans (hAdn-WM656877101).
MDA-MB-231 cells were cultured in DMEM supplemented with 10% FBS and 1% penicillin-streptomycin-fungisone at 37° C. and under 5% CO2 95% humidified air. After harvesting, cells were seeded at a density of 3000 cells per well in 96-well plates and then cultured for 24 hours. After fasting in DMEM with 0.5% FBS for 24 hours, cells were subsequently stimulated with 2.5% FBS in the presence of peptides, human adiponectin or other drugs. The viable cell numbers at 24 hours at different doses were manually counted by mixing with trypan blue dye for analysis. The maximum inhibition rate (Emax) and half maximal effective concentration (EC50) were used to evaluate the anti-tumor activity of peptides and adiponectin. […]

[1] = 24 hours incubation, viable cells manually counted

B1: hAdiponectin: full-length human adiponectin, circulating glycoprotein hormone of 244 amino acids (SEQ ID NO:1) (protein, listed as Homo sapiens)
chain: MLLLGAVLLLLALPGHDQETTTQGPGVLLPLPKGACTGWMAGIPGHPGHNGAPGRDGRDGTPGEKGEKGDPGLIGPKGDIGETGVPGAEGPRGFPGIQGRKGEPGEGAYVYRSAFSVGLETYVTIPNMPIRFTKIFYNQQNHYDGSTGKFHCNIPGLYYFAYHITVYMKDVKVSLFKKDKAMLFTYDQYQENNVDQASGSVLLHLEVGDQVWLQVYGEGERNGLYADNDNDSTFTGFLLYHDTN
- EC50 [1]: 0.33 ± 0.11 µg/mL
- Emax (%) maximum inhibition rate [1]: 69.3 ± 3.34%
- Emax of human adiponectin (adiponectin alone (absence of peptide), FIG. 3C): 66.7±4.29%
